Assays:
human DLL3-his protein [1] = biological target: T1, human DLL3-his protein (human, UniProt Q9NYJ7 27-492); assay: ELISA, coated DLL3-his
T1 construct: also called human DLL3 protein; DLL3 antigen protein; not shown: His tag
T1 sequence: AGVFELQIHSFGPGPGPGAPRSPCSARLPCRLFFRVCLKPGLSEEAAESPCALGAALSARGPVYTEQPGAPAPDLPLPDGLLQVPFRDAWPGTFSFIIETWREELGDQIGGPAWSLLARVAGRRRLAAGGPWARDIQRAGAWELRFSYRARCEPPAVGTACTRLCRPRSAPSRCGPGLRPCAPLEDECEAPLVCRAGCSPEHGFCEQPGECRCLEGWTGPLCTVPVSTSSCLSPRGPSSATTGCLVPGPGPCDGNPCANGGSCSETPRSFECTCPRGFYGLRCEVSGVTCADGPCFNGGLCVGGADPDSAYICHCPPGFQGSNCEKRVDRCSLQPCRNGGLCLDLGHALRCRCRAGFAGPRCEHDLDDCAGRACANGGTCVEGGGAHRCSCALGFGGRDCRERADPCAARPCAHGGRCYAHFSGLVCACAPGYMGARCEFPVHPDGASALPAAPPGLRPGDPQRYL

monkey DLL3-his protein = biological target: T2, monkey DLL3-his protein (cynomolgus monkey, UniProt Q9NYJ7 27-490 (human entry)); assay: ELISA, coated DLL3-his
T2 construct: a bought cynomolgus DLL3-His (Acro DL3-C52H3) is also named; also called monkey DLL3 protein; cynomolgus monkey DLL3-His; not shown: His tag
T2 chain: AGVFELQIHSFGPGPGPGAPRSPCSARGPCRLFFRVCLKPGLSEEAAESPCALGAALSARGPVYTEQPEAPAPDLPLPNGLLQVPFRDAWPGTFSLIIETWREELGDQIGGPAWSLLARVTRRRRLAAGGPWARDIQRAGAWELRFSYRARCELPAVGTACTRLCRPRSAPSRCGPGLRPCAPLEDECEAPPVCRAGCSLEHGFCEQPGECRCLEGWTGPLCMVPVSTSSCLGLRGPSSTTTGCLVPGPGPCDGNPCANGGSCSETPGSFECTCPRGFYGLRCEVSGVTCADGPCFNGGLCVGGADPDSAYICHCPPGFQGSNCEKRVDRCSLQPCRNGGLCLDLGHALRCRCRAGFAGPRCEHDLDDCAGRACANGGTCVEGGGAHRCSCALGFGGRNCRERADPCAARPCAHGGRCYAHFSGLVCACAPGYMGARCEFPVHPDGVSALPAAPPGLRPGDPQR

human DLL3-his protein [2] = biological target: T1, human DLL3-his protein; assay: SPR Biacore 8K, antibody captured on Protein A

B1: SC16.56 (antibody, human IgG1, kappa, V domains shown)
VH: QVQLVQSGAEVKKPGASVKVSCKASGYTFTNYGMNWVRQAPGQGLEWMGWINTYTGEPTYADDFKGRVTMTTDTSTSTAYMELRSLRSDDTAVYYCARIGDSSPSDYWGQGTLVTVSS
VL: EIVMTQSPATLSVSPGERATLSCKASQSVSNDVVWYQQKPGQAPRLLIYYASNRYTGIPARFSGSGSGTEFTLTISSLQSEDFAVYYCQQDYTSPWTFGQGTKLEIKR
notes: expressed in the complete IgG format; variable regions from US20200138969A1; also called control antibody
Human DLL3-his protein [1]
  binding result: binds
Monkey DLL3-his protein
  binding result: binds

B2: Hab015VL4VH6b-hFc (Fc fusion)
scFv (part 1 of 2): NIVLTQSPATLSLSPGERATLSCKASENVGTYVSWFQQKPGQSPRLLIYGASNRYTGIPARFSGSGSGTDFTLTISSLEPEDFAVYYCGQFYSFPSTFGGGTKVEIK
scFv (part 2 of 2): EVQLVESGGGLVKPGGSLRLSCAASGITFSNFWMNWVRQAPEKGLEWVGQIRLKSDQYATHYAESVKGRFTISREDSKNTVYLQMNSLKTEDTAVYYCTTGYYFDYWGQGTTVTVSS
notes: humanized mab015, VL-linker-VH-human IgG1 Fc; also called Hab015L4H6b; not shown: linker; human IgG1 Fc fragment
Human DLL3-his protein [2]
  binding result: binds

B3: BI3 (antibody, human IgG1, kappa, V domains shown)
VH: QVQLVQSGAEVKKPGASVKVSCKASGYTFTSYYVHWVRQAPGQGLEWMVIINPGGGTTSYAQKFLGRVTMTRDTSTNTVYMELKSLRSEDTAVYYCARGEAVTGNYFYYGMDVWGQGTTVTVSS
VL: DIQMTQSPSAMSASVGDRVTITCRASQGISNYLVWFQQKPGKAPKRLIYAVSSLYSGVPSRFSGSGSGTEFTLTISSLQPEDFATYYCLQHDSYPYTFGQGTKLEIKR
notes: expressed in the complete IgG format; variable regions from WO2019234220A1; also called control antibody
Monkey DLL3-his protein
  binding result: binds

Source: patent publication EP4786492A1 (Simcere Zaiming Pharmaceutical Co., Ltd., dated 2026)
